The values below come from paper PMC8004701, “An Arabidopsis Oxalyl-CoA Decarboxylase, AtOXC, Is Important for Oxalate Catabolism in Plants” (International Journal of Molecular Sciences, 2021).

The series deals with the molecule itself. Put plainly: SEC; Superdex 200 Increase 10/300 GL, 100 mM sodium phosphate pH 7.5, 100 mM NaCl, 10 mM beta-mercaptoethanol; standards aldolase (158 kDa) and conalbumin (75 kDa); AtOXC eluted at 13.0 mL.

B1: Arabidopsis oxalyl-CoA decarboxylase (AtOXC), His-tagged (enzyme, Arabidopsis thaliana, UniProt Q9LF46 1-572, looked up)
chain: MADKSETTPPSIDGNVLVAKSLSHLGVTHMFGVVGIPVTSLASRAMALGIRFIAFHNEQSAGYAASAYGYLTGKPGILLTVSGPGCVHGLAGLSNAWVNTWPMVMISGSCDQRDVGRGDFQELDQIEAVKAFSKLSEKAKDVREIPDCVSRVLDRAVSGRPGGCYLDIPTDVLRQKISESEADKLVDEVERSRKEEPIRGSLRSEIESAVSLLRKAERPLIVFGKGAAYSRAEDELKKLVEITGIPFLPTPMGKGLLPDTHEFSATAARSLAIGKCDVALVVGARLNWLLHFGESPKWDKDVKFILVDVSEEEIELRKPHLGIVGDAKTVIGLLNREIKDDPFCLGKSNSWVESISKKAKENGEKMEIQLAKDVVPFNFLTPMRIIRDAILAVEGPSPVVVSEGANTMDVGRSVLVQKEPRTRLDAGTWGTMGVGLGYCIAAAVASPDRLVVAVEGDSGFGFSAMEVETLVRYNLAVVIIVFNNGGVYGGDRRGPEEISGPHKEDPAPTSFVPNAGYHKLIEAFGGKGYIVETPDELKSALAESFAARKPAVVNVIIDPFAGAESGRLQHKN
notes: Oxalyl-CoA decarboxylase AtOXC, Arabidopsis thaliana, locus At5g17380; full-length cDNA; monomer about 61.5 kDa; No removal of the tag is reported; also called His-AtOXC; His-tagged AtOXC; source: E. coli BLR (DE3), purified (nickel-nitriloacetic acid agarose, desalted on Sephadex G-25)
For B1, the “stoichiometry N” value stood at 2.
